From patent US20220298225A1, “METHODS AND COMPOSITIONS FOR TREATING CANCER WITH COLLAGEN BINDING DRUG CARRIERS” (The University of Chicago, priority 2019, published 2022) come the findings set out here.

Series [1] deals with MMTV-PyMT tumor. The experiment in a line: Histological analysis of injected CBD-SA within tumor. Type of series: in vivo, mouse. The conditions noted are these: 1 h after i.v. injection, CD31 staining. The procedure:
Mouse SA (Sigma-Aldrich) and CBD-SA were conjugated with NHS-DyLight 488 according to manufacturer's instructions. Unreacted dye was removed by Zeba spin desalting column, then fluorescent protein solution was stored at 4° C. until use. 100 μg of fluorescent labeled SA or CBD-SA labeled with equimolar of dye was intravenously injected to MMTV-PyMT tumor-bearing mice. 1 h after injection, tumors were harvested and frozen in dry ice with OCT compound. 10 μm of tissue slices were obtained by cryo-sectioning. The tissues were fixed with 2% paraformaldehyde in PBS for 15 min at room temperature. After wash with PBS-T, the tissues were blocked with 2% BSA in PBS-T for 1 h at room temperature. The tissues were stained with biotin labeled anti-mouse CD31 antibody (1:100, Biolegend) and Alexa Fluor 647 streptavidin (1:1000, Biolegend). The tissues were washed three times, then covered with ProLong gold antifade mountant with DAPI (Thermo fisher scientific). IX83 microscope (Olympus) was used for imaging with ×60 magnification. Images were processed using ImageJ software (NIH).

In series [2] the target is collagen type I (Homo sapiens, UniProt P02452+P08123). In words: Binding affinity of CBD-SA to collagen by ELISA. The procedure:
(§1) The binding affinity of CBD-SA to collagens were tested as described previously (9). 96 well ELISA plates (Greiner Bio-One) were coated with collagen I or collagen III (10 μg/mL each in PBS) for overnight at 37° C., followed by blocking with 2% BSA in PBS with 0.05% Tween 20 (PBS-T) for 1 h at room temperature. Then, wells were washed with PBS-T and further incubated with CBD-SA at increasing concentrations for 2 h at room temperature. After three washes with PBS-T, wells were incubated for 1 h at room temperature with biotin- conjugated Abs against mouse SA. After washes, bound CBD-SA were detected with tetramethylbenzidine substrate by measurement of the absorbance at 450 nm with subtraction of the absorbance at 570 nm. The apparent Kd values were obtained by nonlinear regression analysis in Prism software (version 7, GraphPad) assuming one-site-specific binding.
(In an ELISA, binding on a coated surface is turned into a signal by an enzyme label.)

Series [3] deals with T1, collagen type III (Homo sapiens, UniProt P02461).
T1 sequence (P02461 154-1221 limits assumed): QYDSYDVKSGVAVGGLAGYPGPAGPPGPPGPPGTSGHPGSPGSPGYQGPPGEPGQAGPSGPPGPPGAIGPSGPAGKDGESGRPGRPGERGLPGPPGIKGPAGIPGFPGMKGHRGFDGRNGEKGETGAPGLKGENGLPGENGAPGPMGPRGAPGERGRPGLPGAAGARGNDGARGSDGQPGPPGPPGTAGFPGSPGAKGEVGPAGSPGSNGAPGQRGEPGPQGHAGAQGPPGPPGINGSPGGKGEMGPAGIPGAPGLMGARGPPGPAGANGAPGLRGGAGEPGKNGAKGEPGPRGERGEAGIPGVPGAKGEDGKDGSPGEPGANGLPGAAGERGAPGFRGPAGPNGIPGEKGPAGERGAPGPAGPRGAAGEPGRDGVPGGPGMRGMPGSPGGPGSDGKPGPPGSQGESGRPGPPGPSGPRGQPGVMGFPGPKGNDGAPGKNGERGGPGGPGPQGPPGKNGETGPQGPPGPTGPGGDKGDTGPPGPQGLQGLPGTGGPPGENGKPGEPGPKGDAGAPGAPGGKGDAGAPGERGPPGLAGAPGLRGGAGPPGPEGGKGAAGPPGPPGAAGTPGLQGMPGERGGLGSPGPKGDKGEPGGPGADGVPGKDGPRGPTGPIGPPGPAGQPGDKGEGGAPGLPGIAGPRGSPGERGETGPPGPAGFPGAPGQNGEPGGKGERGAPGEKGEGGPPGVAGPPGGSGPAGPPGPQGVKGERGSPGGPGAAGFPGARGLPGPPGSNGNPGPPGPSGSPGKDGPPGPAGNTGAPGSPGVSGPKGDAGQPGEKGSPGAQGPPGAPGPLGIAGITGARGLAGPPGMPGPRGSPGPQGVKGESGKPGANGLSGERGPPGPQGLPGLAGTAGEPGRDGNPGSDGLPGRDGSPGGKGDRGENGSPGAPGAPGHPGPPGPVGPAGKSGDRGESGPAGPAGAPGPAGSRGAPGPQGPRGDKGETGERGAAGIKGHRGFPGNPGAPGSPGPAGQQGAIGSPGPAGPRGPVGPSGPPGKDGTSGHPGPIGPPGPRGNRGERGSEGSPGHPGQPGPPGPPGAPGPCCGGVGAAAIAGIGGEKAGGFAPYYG
The experiment in a line: Binding affinity of CBD-SA to collagen by ELISA. The procedure:
as §1

collagen type I, sequence (P02452 162-1218 limits assumed): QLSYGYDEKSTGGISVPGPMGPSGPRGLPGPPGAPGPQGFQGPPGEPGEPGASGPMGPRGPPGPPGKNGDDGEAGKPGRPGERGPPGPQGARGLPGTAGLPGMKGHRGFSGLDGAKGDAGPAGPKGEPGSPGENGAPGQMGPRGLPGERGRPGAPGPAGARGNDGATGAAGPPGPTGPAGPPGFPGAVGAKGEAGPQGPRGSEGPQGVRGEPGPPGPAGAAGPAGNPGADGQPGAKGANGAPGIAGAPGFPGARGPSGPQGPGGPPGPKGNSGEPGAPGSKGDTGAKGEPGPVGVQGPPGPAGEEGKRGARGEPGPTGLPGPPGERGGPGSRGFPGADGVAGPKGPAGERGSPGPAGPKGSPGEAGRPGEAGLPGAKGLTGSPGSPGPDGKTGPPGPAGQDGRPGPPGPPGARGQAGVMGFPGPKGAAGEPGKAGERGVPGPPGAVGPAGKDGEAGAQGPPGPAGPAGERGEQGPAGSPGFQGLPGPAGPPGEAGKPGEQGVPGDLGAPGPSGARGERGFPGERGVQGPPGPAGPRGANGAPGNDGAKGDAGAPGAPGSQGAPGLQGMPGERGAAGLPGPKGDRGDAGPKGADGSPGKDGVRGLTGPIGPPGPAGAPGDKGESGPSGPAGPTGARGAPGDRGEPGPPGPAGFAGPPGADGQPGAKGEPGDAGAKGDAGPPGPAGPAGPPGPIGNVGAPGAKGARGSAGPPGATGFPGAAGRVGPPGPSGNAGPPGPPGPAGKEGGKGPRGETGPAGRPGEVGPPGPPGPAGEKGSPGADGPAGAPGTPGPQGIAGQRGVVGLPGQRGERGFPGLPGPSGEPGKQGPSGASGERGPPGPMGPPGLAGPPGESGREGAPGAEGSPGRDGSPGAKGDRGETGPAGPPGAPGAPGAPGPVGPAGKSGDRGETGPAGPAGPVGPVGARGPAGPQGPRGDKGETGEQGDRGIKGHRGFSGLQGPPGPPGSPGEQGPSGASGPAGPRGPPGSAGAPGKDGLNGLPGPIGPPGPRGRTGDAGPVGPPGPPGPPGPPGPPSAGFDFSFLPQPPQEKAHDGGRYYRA
collagen type I, sequence (P08123 80-1119 limits assumed): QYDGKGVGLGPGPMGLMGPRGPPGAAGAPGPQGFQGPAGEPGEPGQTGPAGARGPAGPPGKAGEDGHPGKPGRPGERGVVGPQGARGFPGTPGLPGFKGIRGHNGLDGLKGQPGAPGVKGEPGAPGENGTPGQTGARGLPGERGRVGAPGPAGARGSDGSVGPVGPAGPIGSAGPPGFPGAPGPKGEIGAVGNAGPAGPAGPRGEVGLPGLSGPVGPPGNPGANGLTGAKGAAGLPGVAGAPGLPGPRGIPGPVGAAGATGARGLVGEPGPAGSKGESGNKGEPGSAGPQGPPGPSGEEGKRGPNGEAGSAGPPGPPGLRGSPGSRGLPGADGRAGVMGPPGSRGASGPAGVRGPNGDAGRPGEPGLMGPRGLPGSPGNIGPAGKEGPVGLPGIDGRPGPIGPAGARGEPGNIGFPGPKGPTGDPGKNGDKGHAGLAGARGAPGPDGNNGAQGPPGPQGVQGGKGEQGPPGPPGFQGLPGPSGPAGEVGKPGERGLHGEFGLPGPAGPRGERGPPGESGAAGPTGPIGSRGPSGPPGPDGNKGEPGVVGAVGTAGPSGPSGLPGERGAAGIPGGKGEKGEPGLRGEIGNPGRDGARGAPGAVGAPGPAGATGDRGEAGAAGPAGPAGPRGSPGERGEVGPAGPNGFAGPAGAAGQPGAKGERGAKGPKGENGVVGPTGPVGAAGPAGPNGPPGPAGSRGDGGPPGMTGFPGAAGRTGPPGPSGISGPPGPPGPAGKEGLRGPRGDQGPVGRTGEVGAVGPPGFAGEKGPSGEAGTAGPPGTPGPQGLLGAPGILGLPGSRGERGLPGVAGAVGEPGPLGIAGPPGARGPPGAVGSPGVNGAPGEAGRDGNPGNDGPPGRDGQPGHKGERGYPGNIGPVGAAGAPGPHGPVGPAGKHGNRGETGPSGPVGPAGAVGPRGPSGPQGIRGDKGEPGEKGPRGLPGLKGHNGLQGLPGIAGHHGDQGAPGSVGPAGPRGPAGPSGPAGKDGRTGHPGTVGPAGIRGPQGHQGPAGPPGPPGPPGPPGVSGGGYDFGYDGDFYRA

B1: CBD-SA: recombinant mouse serum albumin with VWF A3 collagen binding domain on the N-terminus via (GGGS)2 linker (SEQ ID NO:3) (protein)
chain: CSQPLDVILLLDGSSSFPASYFDEMKSFAKAFISKANIGPRLTQVSVLQYGSITTIDVPWNVVPEKAHLLSLVDVMQREGGPSQIGDALGFAVRYLTSEMHGARPGASKAVVILVTDVSVDSVDAAADAARSNRVTVFPIGIGDRYDAAQLRILAGPAGDSNVVKLQRIEDLPTMVTLGNSFLHKLCSGFVRIGGGSGGGSEAHKSEIAHRYNDLGEQHFKGLVLIAFSQYLQKCSYDEHAKLVQEVTDFAKTCVADESAANCDKSLHTLFGDKLCAIPNLRENYGELADCCTKQEPERNECFLQHKDDNPSLPPFERPEAEAMCTSFKENPTTFMGHYLHEVARRHPYFYAPELLYYAEQYNEILTQCCAEADKESCLTPKLDGVKEKALVSSVRQRMKCSSMQKFGERAFKAWAVARLSQTFPNADFAEITKLATDLTKVNKECCHGDLLECADDRAELAKYMCENQATISSKLQTCCDKPLLKKAHCLSEVEHDTMPADLPAIAADFVEDQEVCKNYAEAKDVFLGTFLYEYSRRHPDYSVSLLLRLAKKYEATLEKCCAEANPPACYGTVLAEFQPLVEEPKNLVKTNCDLYEKLGEYGFQNAILVRYTQKAPQVSTPTLVEAARNLGRVGTKCCTLPEDQRLPCVEDYLSAILNRVCLLHEKTPVSEHVTKCCSGSLVERRPCFSALTVDETYVPKEFKAETFTFHSDICTLPEKEKQIKKQTALAELVKHKPKATAEQLKTVMDDFAQFLDTCCKAADKDTCFSTEGPNLVTRCKDALAHHHHHH
On to B1, for which, in series [1], the “localization of fluorescently-labeled protein within tumor tissue” value is given as “co-localized with CD31 staining within tumor tissue”. Moreover, the “dissociation constant (Kd) to collagen type I” value in series [2] is listed as “nM range”. For the same molecule, the “dissociation constant (Kd) to collagen type III” value in series [3] is “nM range”.
